Data taken from article PMC4424350, “Unraveling the Specific Regulation of the Central Pathway for Anaerobic Degradation of 3-Methylbenzoate” (The Journal of Biological Chemistry, 2015).

What was measured:
[1] = test system: T1, MbdR-His6 (Azoarcus sp. CIB), ORF:e0c75ca7; assay: EMSA; details: EMSA: 20 mM Tris-HCl pH 7.5, 10% glycerol, 50 mM KCl, 0.05 nM probe, 250 ug/ml BSA, 50 ug/ml salmon sperm DNA, 20 min 30 C; footprinting: same buffer, 2 nM …
T1 sequence: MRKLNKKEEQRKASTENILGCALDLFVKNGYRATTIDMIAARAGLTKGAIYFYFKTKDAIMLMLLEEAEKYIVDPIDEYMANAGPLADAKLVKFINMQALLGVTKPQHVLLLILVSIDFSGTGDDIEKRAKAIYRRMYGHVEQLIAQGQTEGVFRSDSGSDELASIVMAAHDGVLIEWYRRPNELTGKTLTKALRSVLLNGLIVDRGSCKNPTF

[2] = test system: T1, MbdR-His6 (Azoarcus sp. CIB), ORF:e0c75ca7; assay: DNase I footprinting; details: EMSA: 20 mM Tris-HCl pH 7.5, 10% glycerol, 50 mM KCl, 0.05 nM probe, 250 ug/ml BSA, 50 ug/ml salmon sperm DNA, 20 min 30 C; footprinting: same buffer, 2 nM …
[3] = test system: MbdR-His6 (Azoarcus sp. CIB); assay: EMSA; details: relative Kd; EMSA: 20 mM Tris-HCl pH 7.5, 10% glycerol, 50 mM KCl, 0.05 nM probe, 250 ug/ml BSA, 50 ug/ml salmon sperm DNA, 20 min 30 C; footprinting: same buffer, 2 nM …
[4] = molecular target: MbdR-His6 protein (Azoarcus sp. CIB); assay: AUC; sedimentation velocity (48,000 rpm, 20 °C) and sedimentation equilibrium (5000 to 15,000 rpm) of MbdR-His6 at 11 to 46 μM in 50 mM NaH2PO4, 300 mM KCl, 20 mM imidazole, pH 8; data not shown

For “ACTGAGGCCCCGCCCAAGTTTTCATTATCTCTAGTACCGGCAAAGAAGGGCCAAACAGATCTATTGCATACTATCCGGTTAGTACGTCTTTTGACCAATTGATCTACACGAGGGGAAACCATGTTCGAGAATTTCAACCATAGTGCTCTGCGTCTTGGAGCGCCAGGCGCTTTAGCGCAGCGTTTGCTGCCGAAGCATCAGGGTCACTATGTTGATGCGCATTGAGGGAATT (double strand) [PA probe (225 bp)]”, the binding [1] was “binds” and the binding [2] was “binds”.

With “AATTCCCTGCGCGCGGCACTATGTCGGGGGAAATTCAGTCATTGCGGAAAACGGCGTTTCCGCGAGCTCGCCAACAAAAGGTCTGACAGCCCCGGTCCCCACATGCGGCTACCATATACCGGCTGGCTGGTATGTGTCAACGACTGATACGGAAGACCTCGAAATCGGAGGGAGGAAAATGGGAAAAGGACCTTTGAGAGCATGGACGGCGCATGGCGAGGAGATGGTATTACGGTAAGTGCTCCACGAGT (double strand) [PB1 probe (251 bp)]” the Kd [1] was 3.72 nM and the binding [2] was “binds”.

In the case of PO probe (271 bp), the Kd [3] is reported as 1.71 nM.

With PB1 probe (251 bp) the Kd [3] was 3.72 nM.

MbdR-His6 protein (natural protein) was tested, and the stoichiometry N [4] was 2.
